In assay [1] the target is human Met-Fc chimera (human) (UniProt P08581). The experiment in a line: ELISA. For orientation: An ELISA detects its analyte on a solid surface through an enzyme-linked reagent.
Assay [2] deals with human Met receptor on cells (human) (UniProt P08581). The experiment in a line: cell-based or functional assay.

As a reminder, the Kd is a measure of binding affinity in units of concentration.

Chain of human Met receptor on cells (human) (P08581 25-1390): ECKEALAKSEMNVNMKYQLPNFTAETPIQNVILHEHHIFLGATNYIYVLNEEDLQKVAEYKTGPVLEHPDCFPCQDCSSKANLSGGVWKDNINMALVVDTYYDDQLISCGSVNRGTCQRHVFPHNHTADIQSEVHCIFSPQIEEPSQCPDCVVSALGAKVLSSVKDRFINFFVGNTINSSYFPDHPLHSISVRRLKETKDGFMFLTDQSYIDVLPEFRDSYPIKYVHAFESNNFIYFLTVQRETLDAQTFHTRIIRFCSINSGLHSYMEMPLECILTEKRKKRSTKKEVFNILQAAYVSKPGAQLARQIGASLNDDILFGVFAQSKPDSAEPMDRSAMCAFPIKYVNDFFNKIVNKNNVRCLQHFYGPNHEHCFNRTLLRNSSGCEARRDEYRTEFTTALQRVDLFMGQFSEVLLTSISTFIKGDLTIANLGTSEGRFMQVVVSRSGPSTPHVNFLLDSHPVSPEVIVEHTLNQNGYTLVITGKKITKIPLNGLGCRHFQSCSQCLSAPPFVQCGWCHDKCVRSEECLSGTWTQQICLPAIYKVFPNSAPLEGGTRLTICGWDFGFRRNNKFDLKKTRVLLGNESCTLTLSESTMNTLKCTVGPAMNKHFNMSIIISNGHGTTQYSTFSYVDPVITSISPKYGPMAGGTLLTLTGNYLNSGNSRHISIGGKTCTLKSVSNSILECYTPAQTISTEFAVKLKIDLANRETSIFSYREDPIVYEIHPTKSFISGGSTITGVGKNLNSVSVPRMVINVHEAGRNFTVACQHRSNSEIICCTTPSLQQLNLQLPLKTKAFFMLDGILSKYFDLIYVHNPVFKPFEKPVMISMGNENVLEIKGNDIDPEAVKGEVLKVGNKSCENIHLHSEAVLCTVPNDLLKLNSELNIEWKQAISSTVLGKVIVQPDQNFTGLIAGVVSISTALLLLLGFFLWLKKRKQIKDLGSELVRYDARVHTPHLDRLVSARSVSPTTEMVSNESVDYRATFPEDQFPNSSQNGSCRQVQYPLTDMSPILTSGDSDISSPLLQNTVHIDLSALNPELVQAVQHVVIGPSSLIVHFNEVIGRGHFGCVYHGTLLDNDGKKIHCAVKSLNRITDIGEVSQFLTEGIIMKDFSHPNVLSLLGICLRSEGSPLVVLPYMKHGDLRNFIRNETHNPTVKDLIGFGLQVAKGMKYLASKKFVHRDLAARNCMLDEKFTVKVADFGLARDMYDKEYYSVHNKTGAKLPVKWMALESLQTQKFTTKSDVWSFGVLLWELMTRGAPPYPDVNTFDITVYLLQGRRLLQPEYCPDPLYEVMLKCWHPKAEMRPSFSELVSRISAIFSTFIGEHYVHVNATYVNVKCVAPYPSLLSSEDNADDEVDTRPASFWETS
Chain of human Met-Fc chimera (human) (P08581 25-932, change not shown): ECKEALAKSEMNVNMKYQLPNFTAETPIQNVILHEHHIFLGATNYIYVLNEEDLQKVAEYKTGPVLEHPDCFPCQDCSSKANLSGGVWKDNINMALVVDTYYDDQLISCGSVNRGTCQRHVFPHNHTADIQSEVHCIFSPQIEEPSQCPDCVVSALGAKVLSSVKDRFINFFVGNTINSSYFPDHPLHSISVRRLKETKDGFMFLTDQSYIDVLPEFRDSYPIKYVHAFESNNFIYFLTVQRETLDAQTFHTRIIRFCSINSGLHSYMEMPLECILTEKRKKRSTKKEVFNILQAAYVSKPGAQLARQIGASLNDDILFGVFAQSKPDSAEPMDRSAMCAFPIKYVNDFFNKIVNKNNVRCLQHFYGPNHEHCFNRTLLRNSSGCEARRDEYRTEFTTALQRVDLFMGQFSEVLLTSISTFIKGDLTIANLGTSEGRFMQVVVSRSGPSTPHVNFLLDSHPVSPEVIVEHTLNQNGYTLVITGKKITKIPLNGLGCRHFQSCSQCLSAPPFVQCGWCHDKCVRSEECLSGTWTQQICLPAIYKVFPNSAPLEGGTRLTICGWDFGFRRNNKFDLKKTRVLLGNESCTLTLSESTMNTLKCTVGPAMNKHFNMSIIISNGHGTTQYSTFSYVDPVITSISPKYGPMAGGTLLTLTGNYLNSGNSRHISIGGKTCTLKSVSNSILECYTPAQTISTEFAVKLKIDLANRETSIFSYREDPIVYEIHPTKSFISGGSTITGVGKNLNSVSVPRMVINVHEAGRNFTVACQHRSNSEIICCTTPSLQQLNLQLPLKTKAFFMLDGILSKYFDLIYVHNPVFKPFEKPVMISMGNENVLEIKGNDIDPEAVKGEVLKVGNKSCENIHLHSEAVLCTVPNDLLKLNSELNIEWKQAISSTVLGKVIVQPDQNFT

chOA-DN30 showed a Kd in assay [1] of 0.319 nM.
For the substance chOA-DN30 (antibody), in assay [2], the percentage of GTL-16 cells in S phase (EdU), 1 uM antibody is 15% and the reduction of proliferating GTL-16 cells versus control (EdU), 1 uM antibody turned out to be 52%.
